US20240116985A1, “STAPLED PEPTIDES AND METHODS THEREOF” (priority 2020, published 2024)
pIC50: −log10 of the molar value.

Key:
[1] = target: full-length beta-Catenin (Uniprot ID P35222) (Homo sapiens (Human)) (UniProt P35222); test: fluorescence polarization competition; full-length beta-catenin, 5FAM-TCF4(10-53) probe displaced
Target sequence in this assay (P35222 whole entry): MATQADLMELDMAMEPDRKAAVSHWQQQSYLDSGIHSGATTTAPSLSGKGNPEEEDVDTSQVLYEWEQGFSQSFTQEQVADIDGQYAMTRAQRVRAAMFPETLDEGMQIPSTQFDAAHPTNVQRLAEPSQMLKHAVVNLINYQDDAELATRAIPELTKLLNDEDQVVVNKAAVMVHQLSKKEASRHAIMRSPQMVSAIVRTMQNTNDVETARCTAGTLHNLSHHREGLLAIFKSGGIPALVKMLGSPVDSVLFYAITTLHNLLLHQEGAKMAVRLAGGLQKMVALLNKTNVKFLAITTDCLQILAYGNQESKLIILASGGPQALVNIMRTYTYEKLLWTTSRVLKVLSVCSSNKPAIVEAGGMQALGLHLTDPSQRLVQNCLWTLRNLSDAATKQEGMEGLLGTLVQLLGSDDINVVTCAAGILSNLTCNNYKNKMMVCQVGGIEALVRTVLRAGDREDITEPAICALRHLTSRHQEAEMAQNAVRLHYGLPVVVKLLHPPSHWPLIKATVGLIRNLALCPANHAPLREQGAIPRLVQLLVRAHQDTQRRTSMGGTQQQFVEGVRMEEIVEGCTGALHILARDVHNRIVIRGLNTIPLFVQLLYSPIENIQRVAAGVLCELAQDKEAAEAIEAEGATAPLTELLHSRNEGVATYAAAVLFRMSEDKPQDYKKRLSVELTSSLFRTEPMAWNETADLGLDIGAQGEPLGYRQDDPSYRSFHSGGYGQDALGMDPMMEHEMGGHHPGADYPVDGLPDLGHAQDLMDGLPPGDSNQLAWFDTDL

[2] = target: full-length beta-Catenin (Uniprot ID P35222) (Homo sapiens (Human)) (UniProt P35222); test: fluorescence polarization competition; full-length beta-catenin, 5FAM-TCF4(10-53) probe as competitor
Target sequence in this assay (P35222 2-781 limits assumed): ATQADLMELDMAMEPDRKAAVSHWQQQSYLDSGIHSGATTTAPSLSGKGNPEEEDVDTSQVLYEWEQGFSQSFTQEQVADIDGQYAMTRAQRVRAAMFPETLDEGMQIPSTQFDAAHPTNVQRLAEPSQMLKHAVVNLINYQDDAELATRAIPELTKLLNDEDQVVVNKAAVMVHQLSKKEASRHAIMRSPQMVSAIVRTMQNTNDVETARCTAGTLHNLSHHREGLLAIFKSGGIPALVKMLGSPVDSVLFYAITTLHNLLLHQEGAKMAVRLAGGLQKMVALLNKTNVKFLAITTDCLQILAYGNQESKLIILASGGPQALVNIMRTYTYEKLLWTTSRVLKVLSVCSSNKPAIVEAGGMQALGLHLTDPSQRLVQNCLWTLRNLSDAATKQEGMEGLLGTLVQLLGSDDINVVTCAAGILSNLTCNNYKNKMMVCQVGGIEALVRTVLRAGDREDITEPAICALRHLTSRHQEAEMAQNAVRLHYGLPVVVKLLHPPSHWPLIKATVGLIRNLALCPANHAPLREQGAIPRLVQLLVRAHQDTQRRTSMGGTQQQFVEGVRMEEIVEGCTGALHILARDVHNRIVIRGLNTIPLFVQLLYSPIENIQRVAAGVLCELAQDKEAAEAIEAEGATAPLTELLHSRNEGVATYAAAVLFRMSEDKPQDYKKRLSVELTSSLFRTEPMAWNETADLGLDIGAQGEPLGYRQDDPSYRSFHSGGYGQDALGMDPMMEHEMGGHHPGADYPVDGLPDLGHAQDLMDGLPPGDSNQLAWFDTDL

[3] = target: full-length beta-Catenin (Uniprot ID P35222) (Homo sapiens (Human)) (UniProt P35222); test: fluorescence polarization competition; displacement of 5FAM-TCF4(10-53) from full-length beta-catenin
Target sequence in this assay (P35222 whole entry): as the sequence (P35222 whole entry) above

Substance | pIC50 [1] | pIC50 [2] | other results
Ac-PL3-Asp-Npg-B5-Asp-Asp-Ala-Ala-Phe-Leu-PyrS2-4CNF-BztA-Gln-NH2 (peptide) | 6.01 | – | –
Ac-PL3-Asp-Npg-B5-Asp-3COOHF-Ala-Ala-Phe-Leu-PyrS2-2F3MeF-SbMe2NapA-Gln-NH2 (peptide) | – | 7.10 | –
MeSO2-PL3-Asp-Npg-B5-Asp-Asp-Ala-Ala-Phe-Asn-PyrS2-3Thi-BztA-Gln-NH2 (peptide) | 8.00 | – | –
I-1519: Ac-PL3-Asp-Cha-B5-Asp-Asp-Ala-Ala-Phe-Leu-PyrS2-3Thi-BztA-Gln-NH2 (peptide) | – | – | pIC50 [3]: 8.00
Ac-PL3-Asp-Npg-B5-Asp-[CH2CCpCO2H]TriAzDap-Ala-Ala-Phe-Leu-PyrS2-3Thi-BztA-Gln-NH2 (peptide) | – | 8.30 | –
Ac-PL3-Asp-Npg-B5-Asp-Asp-Ala-Ala-Phe-Leu-PyrS2-2CNF-BztA-Gln-NH2 (peptide) | 7.80 | – | –
Ac-PL3-Asp-Npg-B5-Asp-[CH2CChCO2H]TriAzDap-Ala-Ala-Phe-Leu-PyrS2-3Thi-BztA-Gln-NH2 (peptide) | – | 8.30 | –
MeSO2-PL3-Asp-Npg-B5-Asp-TfeGA-Ala-Ala-Phe-Asn-PyrS2-3Thi-BztA-Gln-NH2 (peptide) | 8.15 | – | –
Ac-PL3-Asp-Npg-B5-Asp-Asp-Ala-Ala-Phe-Leu-PyrS2-3CNF-BztA-Gln-NH2 (peptide) | 7.09 | – | –
Ac-PL3-Asp-Npg-B5-Asp-3COOHF-Ala-Ala-Phe-Leu-PyrS2-2F3MeF-2F3MeW-Gln-NH2 (peptide) | – | 5.20 | –
